# Measured values reported in the supplement of paper PMC10724198.
# ± gives the standard deviation of the averaged measurements.
# Test system: Saccharomyces cerevisiae
# Test: protein stability index of tFT-peptide fusion (C-terminal peptide) (PSI (0-1 scale)); higher = more stable (slower turnover)
# Conditions: genetic background: wild type; temperature: 30 C
# Method: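 Multiplexed protein stability (MPS) profiling in S. cerevisiae. Random 12-aa peptides (tFT-X12 library) are fused to the C-terminus of a sfGFP-mCherry tandem fluorescent timer, after mCherry and a GGGS linker. Cells are FACS-sorted into 8 mCherry/sfGFP bins and deep-sequenced. The protein stability index (PSI) is the read-weighted bin average, scaled from 0 (unstable) to 1 (stable). Only peptides with >10 reads are reported; cells were grown at 30 °C in SC-His with glucose.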
# 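Also: PSI is a weighted mean of sequencing reads over stability bins, variants kept only with over 10 reads, mCherry proximal and sfGFP distal, peptide attached via GGGS linker.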
row,Sequence,protein stability index
1,ELVISTGRLQKS,0.637 ± 0.019
2,EMTWGSIWPERH,0.731 ± 0.05
3,ENCDSAEPGTRV,0.676 ± 0.033
4,ENHPATICGFYR,0.767 ± 0.087
5,ENPSTIDLSARS,0.656 ± 0.04
6,ENVGRASDHSLS,0.679 ± 0.097
7,EPATEGDSREHW,0.708 ± 0.024
8,EPGQWRAASYGF,0.71 ± 0.024
9,EPNRIAKYYKKY,0.686 ± 0.16
10,EPPELSISALGF,0.6865 ± 0.0021
11,EPTGEPKQKKEG,0.707 ± 0.035
12,EQGLRRRVFFEV,0.644 ± 0.013
13,EQHTKNDQNNEP,0.664 ± 0.028
14,ERANMSRGNQTE,0.687 ± 0.025
15,EREKKNKKGGCQ,0.69 ± 0.018
16,ERGALNRKDTRG,0.662 ± 0.023
17,ERGEEGGRERRR,0.7 ± 0.0073
18,ERGSGSVPGGRD,0.649 ± 0.035
19,ERKEERGREGKR,0.628 ± 0.031
20,ERKEPRIQQQTL,0.67 ± 0.075
21,ERLSEYYPLIKC,0.602 ± 0.044
22,ERMVENNVKGRK,0.6811 ± 0.0027
23,ERRKGGEKGKKK,0.691 ± 0.047
24,ERSDRLWEVSKG,0.685 ± 0.035
25,ERVQTRTTANRD,0.639 ± 0.059
26,ERWRVYERYARG,0.692 ± 0.058

row,Sequence,protein stability index
1,ESDLNDLGQNLN,0.674 ± 0.058
2,ESGGGGGGGRER,0.5726 ± 0.0016
3,ESIGCINIRMRG,0.694 ± 0.013
4,ESRARCGEQAIY,0.641 ± 0.066
5,ESTNKKKEKKNR,0.661 ± 0.04
6,ESVCFRPKCVCK,0.5929 ± 0.0046
7,ESVKVTIAKVMK,0.708 ± 0.016
8,ETRSDAVVVFTK,0.694 ± 0.021
9,ETVLQVRRRVVR,0.6553 ± 0.0028
10,EVASMSCPVFLF,0.652 ± 0.03
11,EVCAGDDIRYLV,0.645 ± 0.026
12,EVCFVWSLGEVL,0.623 ± 0.019
13,EVCGSGCGCGLC,0.74 ± 0.11
14,EVDGISTRAAVC,0.63 ± 0.083
15,EVDKKYRNRKRK,0.744 ± 0.019
16,EVFVVHLLGEAS,0.574 ± 0.064
17,EVGGGVGGRRLM,0.636 ± 0.0099
18,EVGGSVGTIVGS,0.702 ± 0.11
19,EVLAVKLYSGIA,0.648 ± 0.044
20,EVLQGNHHPRPE,0.716 ± 0.019
21,EVSGRCRRPDDQ,0.679 ± 0.041
22,EVVCLGKTTLKR,0.692 ± 0.041
23,EVVRWGCVDLWI,0.717 ± 0.051
24,EWACGRAGLKVV,0.491 ± 0.018
25,EYCIYYTQFGSF,0.65 ± 0.1
26,EYEDNRLDQHKV,0.725 ± 0.04

row,Sequence,protein stability index
1,FAFVCLASILGS,0.5313 ± 0.0017
2,FAPAWQTRLGCP,0.7514 ± 0.0026
3,FAPPASPPARPP,0.672 ± 0.016
4,FAVLGGGVGGGW,0.7077 ± 0.0032
5,FCALWASFFGVS,0.715 ± 0.048
6,FCCFGGSFFSLR,0.715 ± 0.02
7,FCCSYLSRGDFL,0.702 ± 0.023
8,FCDFSPPARSFP,0.76 ± 0.072
9,FCGDFGGAYGLW,0.706 ± 0.047
10,FCGFTSLCVGDL,0.731 ± 0.039
11,FCLGMRKHSSPL,0.731 ± 0.02
12,FCVFFSGLCCWV,0.55 ± 0.022
13,FCWCARPLSWYN,0.615 ± 0.027
14,FDACPAPFGLVV,0.67033 ± 0.0004
15,FDRAVRPSCLLL,0.6892 ± 0.0062
16,FEDWMQGLGKWV,0.792 ± 0.054
17,FELTLLSPVCFS,0.579 ± 0.0089
18,FESTCSGLLYNS,0.694 ± 0.039
19,FFAGASRFSSWS,0.752 ± 0.029
20,FFCLWFLSFLRF,0.572 ± 0.01
21,FFFLPILKSPSR,0.714 ± 0.058
22,FFGNGSGPWVLV,0.6597 ± 0.0018
23,FFGWYFCFSGVS,0.598 ± 0.023
24,FFIGFGGVAGGG,0.695 ± 0.01
25,FFLGGGVGLVLV,0.528 ± 0.053
26,FFLPLAYSSGSN,0.659 ± 0.043

row,Sequence,protein stability index
1,FFLPSLFSVLSF,0.53 ± 0.04
2,FFLRLCTPPYFH,0.651 ± 0.0097
3,FFPITAWSGWDG,0.669 ± 0.093
4,FFPPAPLTSLLP,0.697 ± 0.057
5,FFPPFLFSLFRT,0.5621 ± 0.0007
6,FFQSSLLFCPWR,0.712 ± 0.011
7,FFRWDSKHDILV,0.732 ± 0.064
8,FFRYWLRWGWGV,0.695 ± 0.039
9,FFSFVVPCFFFC,0.513 ± 0.022
10,FFSSSLMRLGCF,0.6343 ± 0.00098
11,FFSWFGCSCYAR,0.779 ± 0.023
12,FFTVRLRGGRDC,0.649 ± 0.024
13,FFVGAGATEGLG,0.735 ± 0.021
14,FFVGAGVTEGLG,0.692 ± 0.033
15,FGFGYAVSFLVG,0.6 ± 0.081
16,FGPDFCVRSHLS,0.719 ± 0.03
17,FGRGLCPHRLWI,0.74 ± 0.039
18,FGRSHPFWVVDV,0.697 ± 0.025
19,FGSRTFVTIAAG,0.57 ± 0.056
20,FGVSLWPGFLYL,0.587 ± 0.0065
21,FGVTLGYFSSVE,0.656 ± 0.017
22,FGVVLAGAGWGG,0.675 ± 0.095
23,FGVVLVGAGWGG,0.67 ± 0.035
24,FGWVGYGCGVWW,0.741 ± 0.12
25,FHFLNLLIPFPR,0.737 ± 0.061
26,FHVVPLTSPPPV,0.755 ± 0.03

row,Sequence,protein stability index
1,FHYSRSCVLEQL,0.698 ± 0.074
2,FICAGPLGVCSC,0.498 ± 0.011
3,FICGFRYHTVYR,0.652 ± 0.043
4,FIKRINSYTGWI,0.663 ± 0.062
5,FIQFGYVSSVIQ,0.722 ± 0.031
6,FISKHHPLVPPS,0.719 ± 0.041
7,FKQLKKKKKNRR,0.741 ± 0.091
8,FLARPIACPRRV,0.701 ± 0.008
9,FLCNSRSICGDG,0.6774 ± 0.0033
10,FLCRLILFSTPP,0.602 ± 0.021
11,FLFASYFLENQR,0.766 ± 0.13
12,FLFRLWGLLAEG,0.583 ± 0.082
13,FLGCFIPLPCTP,0.645 ± 0.012
14,FLGFPVVGVFGS,0.735 ± 0.031
15,FLGRFLTGALWV,0.758 ± 0.12
16,FLLCFLRIPSCP,0.5218 ± 0.0042
17,FLLCISGFSSFL,0.592 ± 0.0077
18,FLLDRSSADHSL,0.684 ± 0.1
19,FLLFSSFYFCFP,0.497 ± 0.062
20,FLLPPAPRPAPP,0.76 ± 0.086
21,FLPFFFCLPSSL,0.628 ± 0.014
22,FLPRLSASSSLC,0.728 ± 0.015
23,FLQRSLTNMNSL,0.671 ± 0.00095
24,FLRGLCGKMSKG,0.673 ± 0.0081
25,FLRKHVLRLRPP,0.594 ± 0.03
26,FLSCLLERSWSL,0.79 ± 0.044

row,Sequence,protein stability index
1,FLSLFCFFLPFF,0.646 ± 0.02
2,FLSPSLLSLSSP,0.681 ± 0.025
3,FLSSWFCYSSDL,0.735 ± 0.07
4,FLSWGSGVFGLL,0.671 ± 0.056
5,FLSWTAYRPSST,0.682 ± 0.0075
6,FLVWGLGWLCCV,0.594 ± 0.025
7,FNISVGPATRRV,0.665 ± 0.045
8,FNPPPLLLPPPP,0.639 ± 0.013
9,FPILLASRPSSP,0.662 ± 0.046
10,FPISPSQSQSLP,0.724 ± 0.076
11,FPIWYPSSSFPR,0.711 ± 0.013
12,FPLPHPCPPPPP,0.694 ± 0.017
13,FPLSPPAPPLTP,0.702 ± 0.013
14,FPPAHPVHFSPP,0.717 ± 0.047
15,FPPCCSSFFGFF,0.752 ± 0.024
16,FPPCSFLARPFL,0.669 ± 0.019
17,FPPLLFSSPPLP,0.683 ± 0.018
18,FPPLSHLPPGLY,0.758 ± 0.075
19,FPPPPPPLPPGS,0.687 ± 0.073
20,FPPPPPSFSQPL,0.741 ± 0.034
21,FPPPPPSRSRPV,0.708 ± 0.032
22,FPPPRYPRRPTA,0.682 ± 0.018
23,FPRRPHVESHIR,0.7359 ± 0.0042
24,FPSSALPPRLSL,0.7409 ± 0.0072
25,FPSSSHLPWLLI,0.633 ± 0.014
